Source: US20210363268A1

Molecular target: Biotinylated Human CD39-His
Assay: MSD equilibrium; Fab

SRF399-C
Kd: 0.053 nM
